Measurements from the Human Domainome abundance scans (Beltran et al. 2025).
± gives the uncertainty stated by the source.

B1: DnaJ homolog subfamily C member 5, residues 16 to 77; numbered along this chain, Q9H3Z4 (parent)
chain: LYHVLGLDKNATSDDIKKSYRKLALKYHPDKNPDNPEAADKFKEINNAHAILTDATKRNIYD

Variants of: B1
Assay: abundance fitness (aPCA) (normalised: wild type 0, dead -1); higher = more abundant; growth selection in yeast, the domain comes from the species named
Details: Homo sapiens

Variant | abundance fitness
LYHVLGLDKVATSDDIKKSYRKLALKYHPDKNPDNPEAADKFKEINNAHAILTDATKRNIYD [N10V] | -0.711 ± 0.069
LYHVLGLDKSATSDDIKKSYRKLALKYHPDKNPDNPEAADKFKEINNAHAILTDATKRNIYD [N10S] | -0.142 ± 0.078
LYHVLGLDKIATSDDIKKSYRKLALKYHPDKNPDNPEAADKFKEINNAHAILTDATKRNIYD [N10I] | -0.741 ± 0.16
LYHVLGLDKLATSDDIKKSYRKLALKYHPDKNPDNPEAADKFKEINNAHAILTDATKRNIYD [N10L] | -0.342 ± 0.075
LYHVLGLDKPATSDDIKKSYRKLALKYHPDKNPDNPEAADKFKEINNAHAILTDATKRNIYD [N10P] | -0.818 ± 0.14
LYHVLGLDKQATSDDIKKSYRKLALKYHPDKNPDNPEAADKFKEINNAHAILTDATKRNIYD [N10Q] | -0.266 ± 0.087
LYHVLGLDKTATSDDIKKSYRKLALKYHPDKNPDNPEAADKFKEINNAHAILTDATKRNIYD [N10T] | -0.073 ± 0.13
LYHVLGLDKYATSDDIKKSYRKLALKYHPDKNPDNPEAADKFKEINNAHAILTDATKRNIYD [N10Y] | -0.796 ± 0.22
LYHVLGLDKWATSDDIKKSYRKLALKYHPDKNPDNPEAADKFKEINNAHAILTDATKRNIYD [N10W] | -0.4 ± 0.068
LYHVLGLDKRATSDDIKKSYRKLALKYHPDKNPDNPEAADKFKEINNAHAILTDATKRNIYD [N10R] | -0.464 ± 0.068
LYHVLGLDKNATADDIKKSYRKLALKYHPDKNPDNPEAADKFKEINNAHAILTDATKRNIYD [S13A] | -0.116 ± 0.082
LYHVLGLDKNATCDDIKKSYRKLALKYHPDKNPDNPEAADKFKEINNAHAILTDATKRNIYD [S13C] | -0.215 ± 0.12
LYHVLGLDKNPTSDDIKKSYRKLALKYHPDKNPDNPEAADKFKEINNAHAILTDATKRNIYD [A11P] | -0.536 ± 0.23
LYHVLGLDKNSTSDDIKKSYRKLALKYHPDKNPDNPEAADKFKEINNAHAILTDATKRNIYD [A11S] | -0.578 ± 0.14
LYHVLGLDKNCTSDDIKKSYRKLALKYHPDKNPDNPEAADKFKEINNAHAILTDATKRNIYD [A11C] | -0.182 ± 0.22
LYHVLGLDKNETSDDIKKSYRKLALKYHPDKNPDNPEAADKFKEINNAHAILTDATKRNIYD [A11E] | -1.13 ± 0.25
LYHVLGLDKNVTSDDIKKSYRKLALKYHPDKNPDNPEAADKFKEINNAHAILTDATKRNIYD [A11V] | -0.661 ± 0.11
LYHVLGLDKNGTSDDIKKSYRKLALKYHPDKNPDNPEAADKFKEINNAHAILTDATKRNIYD [A11G] | -0.536 ± 0.1
LYHVLGLDKNMTSDDIKKSYRKLALKYHPDKNPDNPEAADKFKEINNAHAILTDATKRNIYD [A11M] | -1.6 ± 0.38
LYHVLGLDKNRTSDDIKKSYRKLALKYHPDKNPDNPEAADKFKEINNAHAILTDATKRNIYD [A11R] | -0.846 ± 0.1
LYHVLGLDKNLTSDDIKKSYRKLALKYHPDKNPDNPEAADKFKEINNAHAILTDATKRNIYD [A11L] | -0.941 ± 0.15
LYHVLGLDKNQTSDDIKKSYRKLALKYHPDKNPDNPEAADKFKEINNAHAILTDATKRNIYD [A11Q] | -1.25 ± 0.33

Variant | abundance fitness
LYHVLGLDKNITSDDIKKSYRKLALKYHPDKNPDNPEAADKFKEINNAHAILTDATKRNIYD [A11I] | -1.49 ± 0.32
LYHVLGLDKNKTSDDIKKSYRKLALKYHPDKNPDNPEAADKFKEINNAHAILTDATKRNIYD [A11K] | -0.569 ± 0.16
LYHVLGLDKNNTSDDIKKSYRKLALKYHPDKNPDNPEAADKFKEINNAHAILTDATKRNIYD [A11N] | -0.125 ± 0.36
LYHVLGLDKNWTSDDIKKSYRKLALKYHPDKNPDNPEAADKFKEINNAHAILTDATKRNIYD [A11W] | -1.24 ± 0.21
LYHVLGLDKNTTSDDIKKSYRKLALKYHPDKNPDNPEAADKFKEINNAHAILTDATKRNIYD [A11T] | -0.553 ± 0.16
LYHVLGLDKNANSDDIKKSYRKLALKYHPDKNPDNPEAADKFKEINNAHAILTDATKRNIYD [T12N] | -0.426 ± 0.17
LYHVLGLDKNAMSDDIKKSYRKLALKYHPDKNPDNPEAADKFKEINNAHAILTDATKRNIYD [T12M] | -0.678 ± 0.12
LYHVLGLDKNAFSDDIKKSYRKLALKYHPDKNPDNPEAADKFKEINNAHAILTDATKRNIYD [T12F] | -0.857 ± 0.13
LYHVLGLDKNALSDDIKKSYRKLALKYHPDKNPDNPEAADKFKEINNAHAILTDATKRNIYD [T12L] | -0.813 ± 0.084
LYHVLGLDKNAASDDIKKSYRKLALKYHPDKNPDNPEAADKFKEINNAHAILTDATKRNIYD [T12A] | -0.878 ± 0.12
LYHVLGLDKNADSDDIKKSYRKLALKYHPDKNPDNPEAADKFKEINNAHAILTDATKRNIYD [T12D] | -0.467 ± 0.21
LYHVLGLDKNAKSDDIKKSYRKLALKYHPDKNPDNPEAADKFKEINNAHAILTDATKRNIYD [T12K] | -0.437 ± 0.14
LYHVLGLDKNACSDDIKKSYRKLALKYHPDKNPDNPEAADKFKEINNAHAILTDATKRNIYD [T12C] | -0.235 ± 0.12
LYHVLGLDKNAESDDIKKSYRKLALKYHPDKNPDNPEAADKFKEINNAHAILTDATKRNIYD [T12E] | -0.573 ± 0.12
LYHVLGLDKNASSDDIKKSYRKLALKYHPDKNPDNPEAADKFKEINNAHAILTDATKRNIYD [T12S] | -0.232 ± 0.11
LYHVLGLDKNAGSDDIKKSYRKLALKYHPDKNPDNPEAADKFKEINNAHAILTDATKRNIYD [T12G] | -0.472 ± 0.072
LYHVLGLDKNAWSDDIKKSYRKLALKYHPDKNPDNPEAADKFKEINNAHAILTDATKRNIYD [T12W] | -1.31 ± 0.12
LYHVLGLDKNAHSDDIKKSYRKLALKYHPDKNPDNPEAADKFKEINNAHAILTDATKRNIYD [T12H] | -0.349 ± 0.13
LYHVLGLDKNAISDDIKKSYRKLALKYHPDKNPDNPEAADKFKEINNAHAILTDATKRNIYD [T12I] | -0.412 ± 0.11
LYHVLGLDKNAPSDDIKKSYRKLALKYHPDKNPDNPEAADKFKEINNAHAILTDATKRNIYD [T12P] | -1.01 ± 0.1
LYHVLGLDKNAYSDDIKKSYRKLALKYHPDKNPDNPEAADKFKEINNAHAILTDATKRNIYD [T12Y] | -1.07 ± 0.2
